This test concerns the target T1, CXCR4-VC (CXCR4 fused with C-terminal fragment of Venus) (human).
T1 chain: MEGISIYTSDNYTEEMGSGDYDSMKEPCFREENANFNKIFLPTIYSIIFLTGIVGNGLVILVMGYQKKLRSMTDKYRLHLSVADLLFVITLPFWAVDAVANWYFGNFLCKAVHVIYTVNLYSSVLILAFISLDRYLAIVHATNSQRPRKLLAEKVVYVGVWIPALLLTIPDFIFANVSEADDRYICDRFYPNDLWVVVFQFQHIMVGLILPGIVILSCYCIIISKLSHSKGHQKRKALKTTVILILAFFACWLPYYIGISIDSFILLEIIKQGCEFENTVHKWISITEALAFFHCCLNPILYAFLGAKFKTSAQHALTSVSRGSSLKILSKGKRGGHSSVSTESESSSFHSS
In words: BiFC, U-2 OS cells co-transduced with adenoviruses (30 MOI each). Particulars: remark: other sources report otherwise; scale: BiFC score =.

B1: CXCR4-VN (CXCR4 fused with N-terminal fragment of yellow fluorescent protein Venus), P61072 1-352 (receptor, not shown: small tags and cut ends)
chain: MEGISIYTSDNYTEEMGSGDYDSMKEPCFREENANFNKIFLPTIYSIIFLTGIVGNGLVILVMGYQKKLRSMTDKYRLHLSVADLLFVITLPFWAVDAVANWYFGNFLCKAVHVIYTVNLYSSVLILAFISLDRYLAIVHATNSQRPRKLLAEKVVYVGVWIPALLLTIPDFIFANVSEADDRYICDRFYPNDLWVVVFQFQHIMVGLILPGIVILSCYCIIISKLSHSKGHQKRKALKTTVILILAFFACWLPYYIGISIDSFILLEIIKQGCEFENTVHKWISITEALAFFHCCLNPILYAFLGAKFKTSAQHALTSVSRGSSLKILSKGKRGGHSSVSTESESSSFHSS
modifications: here or on the partner: Venus N-terminal fragment (VN) fused to the receptor. Its letters are not given, so it is left out.; Venus C-terminal fragment (VC) fused to the receptor. Its letters are not given, so it is left out.
In turn, B1 came in with a BiFC score of 9.9.

The values above are taken from patent US20220273751A1, “GPCR HETEROMER INHIBITORS AND USES THEREOF” (GPCR THERAPEUTICS, INC., priority 2019, published 2022).
